The data set concerns MtlR (Pseudomonas fluorescens DSM 50106). Briefly: EMSA. The settings on record: 1x shift buffer A: 10 mM Tris-HCl pH 7.0, 5% glycerol, 1 mM TCEP, 50 ug/ml salmon sperm DNA, 4% TEG, 2 mM D-mannitol (absent in buffer B), 30 min on ice, gel …. A general note: In EMSA bound probe runs differently from free probe, usually more slowly.

pKd: −log10 of the molar value.

As a reminder, the pKd is the Kd on a negative log10 scale, so that one unit is a factor of ten. As to PCR 210 (wild-type PmtlE operator), the negative-log Kd (pKd) was 7.51 (with D-mannitol, kdiss 1.1e-4 s-1, t1/2 112 min) and 7.49 (without mannitol, kdiss 1.2e-4 s-1, t1/2 99 min).
